B1: S75D variant of PD1B244 (antibody, V domains shown)
VH: QVQLVQSGAEVKKPGSSVKVSCKASGGTFSSYAISWVRQAPGQGLEWMGGIIPIFDTANYAQKFQGRVTITADEDTSTAYMELSSLRSEDTAVYYCARPGLAAAYDTGSLDYWGQGTLVTVSS
VL: EIVLTQSPATLSLSPGERATLSCRASQSVRSYLAWYQQKPGQAPRLLIYDASNRATGIPARFSGSGSGTDFTLTISSLEPEDFAVYYCQQRNYWPLTFGQGTKVEIK
B2: S88D variant of PD1B244 (antibody, V domains shown)
VH: QVQLVQSGAEVKKPGSSVKVSCKASGGTFSSYAISWVRQAPGQGLEWMGGIIPIFDTANYAQKFQGRVTITADESTSTAYMELSSLRDEDTAVYYCARPGLAAAYDTGSLDYWGQGTLVTVSS
VL: EIVLTQSPATLSLSPGERATLSCRASQSVRSYLAWYQQKPGQAPRLLIYDASNRATGIPARFSGSGSGTDFTLTISSLEPEDFAVYYCQQRNYWPLTFGQGTKVEIK
B3: S84D variant of PD1B244 (antibody, V domains shown)
VH: QVQLVQSGAEVKKPGSSVKVSCKASGGTFSSYAISWVRQAPGQGLEWMGGIIPIFDTANYAQKFQGRVTITADESTSTAYMELDSLRSEDTAVYYCARPGLAAAYDTGSLDYWGQGTLVTVSS
VL: EIVLTQSPATLSLSPGERATLSCRASQSVRSYLAWYQQKPGQAPRLLIYDASNRATGIPARFSGSGSGTDFTLTISSLEPEDFAVYYCQQRNYWPLTFGQGTKVEIK

In general, Kd refers to the concentration at which binding is half-saturated.

Chain of human PD1 antigen (Q15116 25-167): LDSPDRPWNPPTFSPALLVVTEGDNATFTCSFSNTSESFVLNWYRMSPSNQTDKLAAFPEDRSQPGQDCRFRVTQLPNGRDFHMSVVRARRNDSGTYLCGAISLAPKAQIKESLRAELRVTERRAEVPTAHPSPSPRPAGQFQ

The experiment has as its target human PD1 antigen (human, UniProt Q15116 25-167). Nature of the experiment: SPR.
B1 registered a Kd of 1.38 nM.

Regarding B2, binding was characterised by a dissociation constant (Kd) of 1.36 nM.

B3 came in with an equilibrium dissociation constant (Kd) of 1.51 nM. This Kd and that of the molecule before are within 1.5-fold of each other.

These data come from patent US20190031764A1 (published 2019).
